In US20220389118A1 (Chugai, published 2022):
Residue numbers refer to the chain shown, from its start. Read-outs that look alike come from different tables or passages of the source.

How the values were obtained:
[1] = target: T1, human FcγRIIIa type V extracellular domain with C-terminal His tag (human, UniProt P08637 17-208); experiment: SPR (Biacore)
T1 construct: extracellular domain; also called FcγRIIIaV; FcgRIIIaV

[2] = target: T2, human FcγRIIa type R extracellular domain with C-terminal His tag (human, UniProt P12318 34-217); experiment: SPR (Biacore)
T2 construct: extracellular domain; also called FcγRIIaR; FcgRIIaR
T2 sequence (looked up): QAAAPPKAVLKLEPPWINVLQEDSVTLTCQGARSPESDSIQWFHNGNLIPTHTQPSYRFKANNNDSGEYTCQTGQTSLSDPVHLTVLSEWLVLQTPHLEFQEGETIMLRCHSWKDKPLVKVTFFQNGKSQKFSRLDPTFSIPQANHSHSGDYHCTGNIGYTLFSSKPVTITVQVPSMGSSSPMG

[3] = target: T3, human FcγRIIa type H extracellular domain with C-terminal His tag (human, UniProt P12318 34-217); experiment: SPR (Biacore)
T3 construct: extracellular domain; also called FcγRIIaH; FcgRIIaH
T3 sequence (looked up): T2 sequence (looked up) with R134H

[4] = target: T4, human FcγRIIIa type V (allotype V158) extracellular domain with C-terminal His tag (human, UniProt P08637 17-208); experiment: SPR (Biacore), antibody captured, FcγR analyte
T4 construct: extracellular domain; also called FcγRIIIaV; FcγRIIIa V type; not shown: His tag at the C terminus

[5] = target: T5, human FcγRIIb extracellular domain with C-terminal His tag (human, UniProt P31994 43-217); experiment: SPR (Biacore), antibody captured, FcγR analyte
T5 construct: extracellular domain; not shown: His tag at the C terminus
T5 sequence (looked up): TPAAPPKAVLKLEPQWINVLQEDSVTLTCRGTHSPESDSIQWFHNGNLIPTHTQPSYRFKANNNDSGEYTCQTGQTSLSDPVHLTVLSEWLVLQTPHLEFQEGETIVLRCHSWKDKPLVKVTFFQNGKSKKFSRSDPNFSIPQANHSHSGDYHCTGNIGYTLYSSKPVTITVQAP

[6] = target: T6, human FcγRIIb extracellular domain with C-terminal His tag (human, UniProt P31994 43-217); experiment: SPR (Biacore), antibody captured, FcγR analyte; remark: listed apart in the source
T6 construct: extracellular domain; not shown: His tag at the C terminus
T6 sequence (looked up): T5 sequence (looked up)

[7] = target: T7, human FcγRIIa type H (H131) extracellular domain with C-terminal His tag (human, UniProt P12318 34-217); experiment: SPR (Biacore), antibody captured, FcγR analyte
T7 construct: extracellular domain; also called FcγRIIaH; not shown: His tag at the C terminus
T7 sequence (looked up): T2 sequence (looked up) with R134H

[8] = target: T8, human FcγRIa extracellular domain with C-terminal His tag (human, UniProt P12314 16-292); experiment: SPR (Biacore), antibody captured, FcγR analyte
T8 construct: not shown: His tag at the C terminus
T8 sequence (P12314 16-292): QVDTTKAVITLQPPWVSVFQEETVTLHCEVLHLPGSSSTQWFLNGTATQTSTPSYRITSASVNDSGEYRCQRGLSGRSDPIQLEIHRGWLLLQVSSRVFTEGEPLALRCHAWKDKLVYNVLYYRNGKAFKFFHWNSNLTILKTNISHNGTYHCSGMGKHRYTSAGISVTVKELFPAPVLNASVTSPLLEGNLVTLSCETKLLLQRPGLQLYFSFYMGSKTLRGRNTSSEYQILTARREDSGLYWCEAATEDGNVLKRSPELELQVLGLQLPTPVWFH

[9] = target: T6, human FcγRIIb extracellular domain with …; experiment: SPR (Biacore), antibody captured, FcγR analyte; remark: listed apart in the source
[10] = target: T9, soluble human IL-6 receptor (human, UniProt P08887 20-357); experiment: SPR (Reference Example 6)
T9 construct: also called hsIL-6R
T9 sequence: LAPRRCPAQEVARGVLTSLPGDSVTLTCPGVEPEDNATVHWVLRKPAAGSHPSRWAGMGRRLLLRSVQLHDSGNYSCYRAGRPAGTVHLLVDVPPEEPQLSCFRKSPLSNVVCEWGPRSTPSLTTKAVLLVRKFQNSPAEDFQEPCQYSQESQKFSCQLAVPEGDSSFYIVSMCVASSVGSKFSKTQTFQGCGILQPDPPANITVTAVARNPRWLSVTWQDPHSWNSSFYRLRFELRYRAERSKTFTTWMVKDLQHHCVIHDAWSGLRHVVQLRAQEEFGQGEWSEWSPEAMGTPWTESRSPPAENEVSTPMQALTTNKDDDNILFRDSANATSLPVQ
Method: The kinetic analysis of the antigen-antibody reactions was conducted in solutions with 2 mM and 3 μM calcium ion concentrations, set as high and low calcium ion concentration conditions, respectively. The antibody of interest was captured on Sensor chip CM4 (GE Healthcare) on which an appropriate amount of Protein A (Invitrogen) was immobilized by an amine coupling method. Two buffers [10 mM ACES, 150 mM NaCl, 0.05% (w/v) Tween 20, and 2 mM CaCl₂) (pH 7.4) or 10 mM ACES, 150 mM NaCl, 0.05% (w/v) Tween 20, and 3 μmol/L CaCl₂ (pH 7.4)] were used as running buffers. These buffers were used for diluting human IL-6 receptor. All the measurements were conducted at 37° C.
Subsequently, the sensor chip was regenerated by injecting 10 mM glycine-HCl (pH 1.5) at a flow rate 30 μL/min for 30 seconds. Dissociation constants (KD) (M) were calculated from the sensorgrams obtained in the measurement, using a steady-state affinity model. Each parameter was calculated using the Biacore T100 Evaluation Software (GE Healthcare).

[11] = target: T10, human FcγRIa extracellular domain with C-terminal His tag (human, UniProt P12314 16-292); experiment: SPR (Biacore), antibody captured, FcγR as analyte
T10 construct: also called FcgRIa
T10 sequence (P12314 16-292): as the sequence (P12314 16-292) above

[12] = target: T11, human FcγRIIa type R extracellular domain with C-terminal His tag (human, UniProt P12318 34-217); experiment: SPR (Biacore), antibody captured, FcγR as analyte
T11 construct: extracellular domain; also called FcγRIIaR; FcgRIIaR
T11 sequence (looked up): T2 sequence (looked up)

[13] = target: T12, human FcγRIIb extracellular domain with C-terminal His tag (human, UniProt P31994 43-217); experiment: SPR (Biacore), antibody captured, FcγR as analyte
T12 construct: extracellular domain; also called FcgRIIb
T12 sequence (looked up): T5 sequence (looked up)

T1 sequence (P08637 17-208 F176V): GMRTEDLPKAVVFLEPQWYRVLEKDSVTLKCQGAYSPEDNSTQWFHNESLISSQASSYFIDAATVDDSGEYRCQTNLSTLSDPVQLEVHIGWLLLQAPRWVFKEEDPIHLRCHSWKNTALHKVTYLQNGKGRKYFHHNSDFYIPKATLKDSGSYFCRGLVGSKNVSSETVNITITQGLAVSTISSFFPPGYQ
T4 sequence (P08637 17-208 F176V): as above

B1: IL6R-2B253/IL6R-L (antibody, human IgG1, kappa)
heavy: QVQLQESGPGLVKPSETLSLTCAVSGHSISHDHAWSWVRQPPGEGLEWIGFISYSGITNYNPSLQGRVTISRDNSKNTLYLQMNSLRAEDTAVYYCARSLARTTAMDYWGEGTLVTVSSASTKGPSVFPLAPSSKSTSGGTAALGCLVKDYFPEPVTVSWNSGALTSGVHTFPAVLQSSGLYSLSSVVTVPSSSLGTQTYICNVNHKPSNTKVDKKVEPKSCDKTHTCPPCPAPDLLGGDSVFLFPPKPKDTLMISRTPEVTCVVVDVSHEDPEVKFNWYVDGVEVHNAKTKPREEQYNSTYRVVSVLTVLHQDWLNGKEYKCKMSNKALPAPIEKTISKAKGQPREPQVYTLPPSRDELTKNQVSLTCLVKGFYPSDIAVEWESNGQPENNYKTTPPVLDSDGSFFLYSKLTVDKSRWQQGNVFSCSVMHEALHNHYTQESLSLSP
light: not shown
notes: EU numbering; alterations on IL6R-B3; copies: 2 + 2
Kd [1]: 50000 nM | Kd [2]: 5000 nM

B2: IL6R-BP085/IL6R-L (antibody, human IgG1, kappa)
heavy: B1 heavy with D235E, G239D, M325V, A332K
light: not shown
notes: as for B1
Kd [1]: 68000 nM | Kd [2]: 4200 nM

B3: IL6R-BP132/IL6R-L (antibody, human IgG1, kappa)
heavy: B1 heavy with M325V, K328A, A332K
light: not shown
notes: as for B1
Kd [3]: 30000 nM | Kd [2]: 8000 nM

B4: IL6R-BP217/IL6R-L (antibody, human IgG1, kappa)
heavy: B1 heavy with D235E, G239D, S269Q, H270D, P273G, Y298D, M325V, A332K
light: not shown
notes: copies: 2 + 2
Kd [4]: 60000 nM

B5: IL6R-BP231/IL6R-L (antibody, human IgG1, kappa)
heavy: B1 heavy with D235E, G239D, H270D, P273G, Y298D, M325V, A332R
light: not shown
notes: copies: 2 + 2
Kd [4]: 40000 nM

B6: IL6R-BP239/IL6R-L (antibody, human IgG1, kappa)
heavy: B1 heavy with L236Y, G239D, S269Q, H270D, P273G, Y298D, M325V, K328A, A332R
light: not shown
notes: copies: 2 + 2
Kd [5]: 60 nM

B7: IL6R-BP350/IL6R-L (antibody, human IgG1, kappa)
heavy: B1 heavy with G239D, S269E, H270E, P273G, M325V
light: not shown
notes: S267E introduced into IL6R-BP267; copies: 2 + 2
Kd [6]: 100 nM

B8: IL6R-BP367/IL6R-L (antibody, human IgG1, kappa)
heavy: B1 heavy with G239D, H270E, E271D, P273G, M325V
light: not shown
notes: E269D introduced into IL6R-BP267; copies: 2 + 2
Kd [6]: 100 nM

B9: IL6R-BP447/IL6R-L (antibody, human IgG1, kappa)
heavy: B1 heavy with G239D, S269A, H270E, P273G, M325V, A332R, P398A
light: not shown
notes: P396A introduced into IL6R-BP423; copies: 2 + 2
Kd [7]: 2000 nM | Kd [8]: 0.9 nM

B10: IL6R-BP455/IL6R-L (antibody, human IgG1, kappa)
heavy: B1 heavy with G239D, S269A, H270E, P273G, M325V, A332R, P398L
light: not shown
notes: P396L introduced into IL6R-BP423; copies: 2 + 2
Kd [7]: 1600 nM | Kd [9]: 4 nM

B11: IL6R-BP456/IL6R-L (antibody, human IgG1, kappa)
heavy: B1 heavy with G239D, S269A, H270E, P273G, M325V, A332R, P398M
light: not shown
notes: P396M introduced into IL6R-BP423; copies: 2 + 2
Kd [7]: 2000 nM | Kd [8]: 0.6 nM

B12: IL6R-BP464/IL6R-L (antibody, human IgG1, kappa)
heavy: B1 heavy with G239D, S269A, H270E, P273G, M325V, A332R, P398Y
light: not shown
notes: P396Y introduced into IL6R-BP423; copies: 2 + 2
Kd [9]: 4 nM

B13: 6RL#9-IgG1 (antibody, V domains shown)
VH: QVQLVQSGAEVKKPGASVKVSCKASGYTFTSYYMHWVRQAPGQGLEWMGIINPSGGSTSYAQKFQGRVTMTRDTSTSTVYMELSSLRSEDTAVYYCARDDPGGGEYYFDYWGQGTLVTVSS
VL: QSVLTQPPSVSGAPGQRVTISCTGSRSNMGAGYDVHWYQLLPGAAPKLLISHNTHRPSGVPDRFSGSKSGASASLAITGLQAEDEADYYCQSHDSSLSAVVFGGGTKLTVLS
notes: also called antibody 6RL#9
Ca-dependent binding ability [10]: ≥ 100 fold

B14: FH4-IgG1 (antibody, V domains shown)
VH: QVQLVQSGAEVKKPGSSVKVSCKASGGTFSSYAISWVRQAPGQGLEWMGGIIPIFGTANYAQKFQGRVTITADESTSTAYMELSSLRSEDTAVYYCARERDYYDSSGYYDAFDIWGQGTMVTVSS
VL: ETTVTQSPSFLSASVGDRVTITCITTTDIDDDMNWFQQEPGKAPKLLISEGNILRPGVPSRFSSSGYGTDFTLTISKLQPEDFATYYCLQSDNLPFTFGQGTKLEIKR
Ca-dependent binding ability [10]: ≥ 100 fold

B15: IL6R-2B172/IL6R-L (antibody, human IgG1, kappa)
heavy: B1 heavy with D235E
light: not shown
notes: IgG1 type
Kd [11]: 3 nM | Kd [12]: 6100 nM | KD(IIb) of parent polypeptide/KD(IIb) of altered polypeptide [13]: 4 fold vs IL6R-B3/IL6R-L

B16: IL6R-BP106/IL6R-L (antibody, human IgG1, kappa)
heavy: B1 heavy with D235E, H270D, M325V
light: not shown
notes: IgG1 type
Kd [11]: 4 nM | Kd [12]: 11000 nM | KD(IIb) of parent polypeptide/KD(IIb) of altered polypeptide [13]: 3.3 fold vs IL6R-B3/IL6R-L

B17: IL6R-BP119/IL6R-L (antibody, human IgG1, kappa)
heavy: B1 heavy with D235E, M325V, K328M
light: not shown
notes: IgG1 type
Kd [11]: 7 nM | Kd [12]: 9900 nM | KD(IIb) of parent polypeptide/KD(IIb) of altered polypeptide [13]: 2.7 fold vs IL6R-B3/IL6R-L
